Measurements taken from patent US11994512B2, “Single-cell genomic methods to generate ex vivo cell systems that recapitulate in vivo biology with improved fidelity” (Massachusetts Institute of Technology, priority 2018, dated 2024).

B1: P63158 (protein, UniProt P63158 1-215, looked up)
chain: MGKGDPKKPRGKMSSYAFFVQTCREEHKKKHPDASVNFSEFSKKCSERWKTMSAKEKGKFEDMAKADKARYEREMKTYIPPKGETKKKFKDPNAPKRPPSAFFLFCSEYRPKIKGEHPGLSIGDVAKKLGEMWNNTAADDKQPYEKKAAKLKEKYEKDIAAYRAKGKPDAAKKGVVKAEKSKKKKEEEDDEEDEEDEEEEEEEEDEDEEEDDDDE
modifications: full-length
B2: P70429 (protein, UniProt P70429 1-414, looked up)
chain: MSEQSICQARASVMVYDDTSKKWVPIKPGQQGFSRINIYHNTASSTFRVVGVKLQDQQVVINYSIVKGLKYNQATPTFHQWRDARQVYGLNFASKEEATTFSNAMLFALNIMNSQEGGPSTQRQVQNGPSPEEMDIQRRQVMEQQHRQESLERRISATGPILPPGHPSSAASTTLSCSGPPPPPPPPVPPPPTGSTPPPPPPLPAGGAQGTNHDESSASGLAAALAGAKLRRVQRPEDASGGSSPSGTSKSDANRASSGGGGGGLMEEMNKLLAKRRKAASQTDKPADRKEDESQTEDPSTSPSPGTRATSQPPNSSEAGRKPWERSNSVEKPVSSLLSRTPSVAKSPEAKSPLQSQPHSRVKPAGSVNDVGLDALDLDRMKQEILEEVVRELHKVKEEIIDAIRQELSGISTT
modifications: full-length
B3: P81117 (protein, UniProt P81117 1-420, looked up)
chain: MRWRIIQVQYCFLLVPCMLTALEAVPIDVDKTKVHNTEPVENARIEPPDTGLYYDEYLKQVIEVLETDPHFREKLQKADIEEIRSGRLSQELDLVSHKVRTRLDELKRQEVGRLRMLIKAKLDALQDTGMNHHLLLKQFEHLNHQNPNTFESRDLDMLIKAATADLEQYDRTRHEEFKKYEMMKEHERREYLKTLSEEKRKEEESKFEEMKRKHEDHPKVNHPGSKDQLKEVWEETDGLDPNDFDPKTFFKLHDVNNDGFLDEQELEALFTRELEKVYNPQNAEDDMIEMEEERLRMREHVMSEIDNNKDRLVTLEEFLRATEKKEFLEPDSWETLDQQQLFTEDELKEYESIIAIQENELKKRAEELQKQKEDLQRQHDHLEAQKQEYHQAVQHLEQKKLQQGIAPSGPAGELKFEPHT
modifications: full-length
B4: P97290 (protein, UniProt P97290 1-504, looked up)
chain: MASRLTPLTLLLLLLAGDRAFSDPEATSHSTQDPLEAQAKSRESFPERDDSWSPPEPTVLPSTWPTTSVAITITNDTMGKVANESFSQHSQPAAQLPTDSPGQPPLNSSSQPSTASDLPTQATTEPFCPEPLAQCSDSDRDSSEAKLSEALTDFSVKLYHAFSATKMAKTNMAFSPFSIASLLTQVLLGAGDSTKSNLESILSYPKDFACVHQALKGFSSKGVTSVSQIFHSPDLAIRDTYVNASQSLYGSSPRVLGPDSAANLELINTWVAENTNHKIRKLLDSLPSDTCLVLLNAVYLSAKWKITFEPKKMMAPFFYKNSMIKVPMMSSVKYPVAQFDDHTLKAKVGQLQLSHNLSFVIVVPVFPKHQLKDVEKALNPTVFKAIMKKLELSKFLPTYLTMPHIKVKSSQDMLSVMEKLEFFDFTYDLNLCGLTEDPDLQVSAMKHETVLELTESGVEAAAASAISFGRSLPIFEVQRPFLFLLWDQQHRFPVFMGRVYDPRG
modifications: full-length
B5: P97314 (protein, UniProt P97314 1-193, looked up)
chain: MPVWGGGNKCGACGRTVYHAEEVQCDGRSFHRCCFLCMVCRKNLDSTTVAIHDEEIYCKSCYGKKYGPKGYGYGQGAGTLNMDRGERLGIKPESAQPHRPTTNPNTSKFAQKYGGAEKCSRCGDSVYAAEKIIGAGKPWHKNCFRCAKCGKSLESTTLTEKEGEIYCKGCYAKNFGPKGFGYGQGAGALVHAQ
modifications: full-length
B6: P97449 (protein, UniProt P97449 1-966, looked up)
chain: MAKGFYISKTLGILGILLGVAAVCTIIALSVVYAQEKNRNAENSATAPTLPGSTSATTATTTPAVDESKPWNQYRLPKTLIPDSYRVILRPYLTPNNQGLYIFQGNSTVRFTCNQTTDVIIIHSKKLNYTLKGNHRVVLRTLDGTPAPNIDKTELVERTEYLVVHLQGSLVEGRQYEMDSQFQGELADDLAGFYRSEYMEGDVKKVVATTQMQAADARKSFPCFDEPAMKAMFNITLIYPNNLIALSNMLPKESKPYPEDPSCTMTEFHSTPKMSTYLLAYIVSEFKNISSVSANGVQIGIWARPSAIDEGQGDYALNVTGPILNFFAQHYNTSYPLPKSDQIALPDFNAGAMENWGLVTYRESSLVFDSQSSSISNKERVVTVIAHELAHQWFGNLVTVAWWNDLWLNEGFASYVEYLGADYAEPTWNLKDLMVLNDVYRVMAVDALASSHPLSSPADEIKTPDQIMELFDSITYSKGASVIRMLSSFLTEDLFKKGLSSYLHTYQYSNTVYLDLWEHLQKAVNQQTAVQPPATVRTIMDRWILQMGFPVITVNTNTGEISQKHFLLDSKSNVTRPSEFNYIWIAPIPFLKSGQEDHYWLDVEKNQSAKFQTSSNEWILLNINVTGYYLVNYDENNWKKLQNQLQTDLSVIPVINRAQIIHDSFNLASAKMIPITLALDNTLFLVKEAEYMPWQAALSSLNYFTLMFDRSEVYGPMKRYLKKQVTPLFFYFQNRTNNWVNRPPTLMEQYNEINAISTACSSGLKECRDLVVELYSQWMKNPNNNTIHPNLRSTVYCNAIAFGGEEEWNFAWEQFRNATLVNEADKLRSALACSKDVWILNRYLSYTLNPDYIRKQDTTSTIISIASNVAGHPLVWDFVRSNWKKLFENYGGGSFSFANLIQGVTRRFSSEFELQQLEQFKADNSATGFGTGTRALEQALEKTRANIDWVKENKDAVFKWFTENSS
modifications: full-length
B7: P98063 (protein, UniProt P98063 1-991, looked up)
chain: MPGVARPPLPLLSLPLLLLLLLLPRAGRPLDLADYTYDLGEEDAPELLNYKDPCKAAAFLGDIALDEEDLRAFQVQQAAVLRQQTARRPSIKAAGNSSALGGQGTSGQPQRESRGRWRGRPRSRRAATSRPERVWPDGVIPFVIGGNFTGSQRAVFRQAMRHWEKHTCVTFLERTDEDSYIVFTYRPCGCCSYVGRRGGGPQAISIGKNCDKFGIVVHELGHVIGFWHEHTRPDRDRHVSIVRENIQPGQEYNFLKMEVQEVESLGETYDFDSIMHYARNTFSRGIFLDTIVPKYEVNGVKPSIGQRTRLSKGDIAQARKLYKCPACGETLQDSTGNFSSPEYPNGYSAHMHCVWRISVTPGEKIILNFTSMDLYRSRLCWYDYVEVRDGFWRKAPLRGRFCGGKLPEPIVSTDSRLWVEFRSSSNWVGKGFFAVYEAICGGDVKKDNGHIQSPNYPDDYRPSKVCIWRIQVSEGFHVGLTFQSFEIERHDSCAYDYLEVRDGHSESSNLIGRYCGYEKPDDIKSTSSRLWLKFVSDGSINKAGFAVNFFKEVDECSRPNRGGCEQRCLNTLGSYKCSCDPGYELAPDKRRCEAACGGFLTKLNGSITSPGWPKEYPPNKNCIWQLVAPTQYRISLQFDFFETEGNDVCKYDFVEVRSGLTADSKLHGKFCGSEKPEVITSQYNNMRVEFKSDNTVSKKGFKAHFFSDKDECSKDNGGCQQDCVNTFGSYECQCRSGFVLHDNKHDCKEAGCEHKVTSTSGTITSPNWPDKYPSKKECTWAISSTPGHRVKLTFVEMDIESQPECAYDHLEVFDGRDAKAPVLGRFCGSKKPEPVLATGNRMFLRFYSDNSVQRKGFQASHSTECGGQVRADVKTKDLYSHAQFGDNNYPGGVDCEWVIVAEEGYGVELVFQTFEVEEETDCGYDYIELFDGYDSTAPRLGRYCGSGPPEEVYSAGDSVLVKFHSDDTISKKGFHLRYTSTKFQDTLHSRK
modifications: full-length
B8: Q00623 (protein, UniProt Q00623 1-264, looked up)
chain: MKAVVLAVALVFLTGSQAWHVWQQDEPQSQWDKVKDFANVYVDAVKDSGRDYVSQFESSSLGQQLNLNLLENWDTLGSTVSQLQERLGPLTRDFWDNLEKETDWVRQEMNKDLEEVKQKVQPYLDEFQKKWKEDVELYRQKVAPLGAELQESARQKLQELQGRLSPVAEEFRDRMRTHVDSLRTQLAPHSEQMRESLAQRLAELKSNPTLNEYHTRAKTHLKTLGEKARPALEDLRHSLMPMLETLKTQVQSVIDKASETLTAQ
modifications: full-length
B9: Q03157 (protein, UniProt Q03157 1-654, looked up)
chain: MGPTSPAARGQGRRWRPPPLPLLLPLSLLLLRAQLAVGNLAVGSPSAAEAPGSAQVAGLCGRLTLHRDLRTGRWEPDPQRSRRCLLDPQRVLEYCRQMYPELHIARVEQAAQAIPMERWCGGTRSGRCAHPHHEVVPFHCLPGEFVSEALLVPEGCRFLHQERMDQCESSTRRHQEAQEACSSQGLILHGSGMLLPCGSDRFRGVEYVCCPPPATPNPSGMAAGDPSTRSWPLGGRAEGGEDEEEVESFPQPVDDYFVEPPQAEEEEEEEEERAPPPSSHTPVMVSRVTPTPRPTDGVDVYFGMPGEIGEHEGFLRAKMDLEERRMRQINEVMREWAMADSQSKNLPKADRQALNEHFQSILQTLEEQVSGERQRLVETHATRVIALINDQRRAALEGFLAALQGDPPQAERVLMALRRYLRAEQKEQRHTLRHYQHVAAVDPEKAQQMRFQVQTHLQVIEERMNQSLGLLDQNPHLAQELRPQIQELLLAEHLGPSELDASVPGSSSEDKGSLQPPESKDDPPVTLPKGSTDQESSSSGREKLTPLEQYEQKVNASAPRGFPFHSSDIQRDELAPSGTGVSREALSGLLIMGAGGGSLIVLSLLLLRKKKPYGTISHGVVEVDPMLTLEEQQLRELQRHGYENPTYRFLEERP
modifications: full-length

Test system: intracellular proteome of ENR+CD and ENR organoids
Test: LC-MS/MS TMT proteomics of ENR+CD versus ENR organoids
Type: cell-based, C57BL/6 mice
Settings: for Average logFC / M1-1 Log2 Median Normalized / M1-2 Log2 Median Normalized / M2-1 Log2 Median Normalized / M2-2 Log2 Median Normalized: protein abundance, ENR+CD versus ENR organoids; for Average logFC: aggregate of the four sample pairs; for M1-1 Log2 Median Normalized: replicate M1-1; for M1-1 Log2 Median Normalized / M1-2 Log2 Median Normalized / M2-1 Log2 Median Normalized / M2-2 Log2 Median Normalized: log2 ratio; for M1-2 Log2 Median Normalized: replicate M1-2; for M2-1 Log2 Median Normalized: replicate M2-1; for M2-2 Log2 Median Normalized: replicate M2-2; for change: up = enriched in ENR+CD, down = enriched in ENR, FDR<0.05 and log fold change cut-off

Molecule | Average logFC | M1-1 Log2 Median Normalized | M1-2 Log2 Median Normalized | M2-1 Log2 Median Normalized | M2-2 Log2 Median Normalized | change
B1 | −1.338 | −1.875 | −1.062 | −1.2145 | −1.339 | down
B2 | 1.275 | 1.275 | 1.519 | 1.2085 | 1.206 | up
B3 | 1.372 | 1.736 | 1.385 | 1.0905 | 1.276 | up
B4 | 1.245 | 1.362 | 1.123 | 1.2185 | 1.278 | up
B5 | −1.204 | −1.447 | −1.021 | −1.3045 | −1.045 | down
B6 | 1.247 | 1.246 | 1.528 | 1.2875 | 0.807 | up
B7 | 1.311 | 1.296 | 1.342 | 1.2215 | 1.383 | up
B8 | −2.027 | −1.311 | −2.229 | −2.6175 | −1.952 | down
B9 | 1.178 | 1.177 | 0.671 | 1.2695 | 1.559 | up
